Test results as given in article PMC4355975, “PAT1 inversely regulates the surface Amyloid Precursor Protein level in mouse primary neurons” (BMC Neuroscience, 2015).

Assays:
[1] = target: T1, Amyloid Precursor Protein (APP) (mouse (endogenous in primary cortical …, UniProt P12023 18-770)); assay: co-IP; after cell surface biotinylation of mouse primary cortical neurons at 6 DIV (Cell surface Co-IP); APP precipitated with anti-APP Cter polyclonal antibody; blots for APP and PAT1; details: partners not purified
T1 construct: Amyloid precursor protein, endogenous in mouse primary cortical neurons; precipitated with the anti-APP Cter polyclonal antibody, detected with anti-APP-Nter A4; In the cell surface co-IP the surface pool was labelled with sulfo-NHS-biotin; source: endogenous, mouse primary cortical neurons (E16, Swiss strain), in lysate

[2] = target: T1, Amyloid Precursor Protein (APP); assay: co-IP; total extracts of mouse primary cortical neurons at 6 DIV; APP precipitated with anti-APP Cter polyclonal antibody and protein A Sepharose; IP buffer Hepes 10 mM, NaCl 150 mM, CaCl2 2 mM, 1% Triton X 100, 4°C; blots for APP and PAT1; details: partners not purified

B1: PAT1 (Protein interacting with APP tail 1) (natural protein, UniProt Q9DAX9 1-585, looked up)
chain: MAAVELEWIPETLYNTAISAVVDNYIRSRRDIRSLPENIQFDVYYKLYQQGRLCQLGSEFCELEVFAKVLRALDKRHLLHHCFQALMDHGVKVASVLAYSFSRRCSYIAESDAAVKEKAIQVGFVLGGFLSDAGWYSDAEKVFLSCLQLCTLHDEMLHWFRAVECCVRLLHVRNGNCKYHLGEETFKLAQTYMDKLSKHGQQANRAALYGELCALLFAKSHYDEAYKWCVEAMKEITAGLPVKVVVDVLRQASKACVVKREFKKAEQLIKHAVYLARDHFGSKHPKYSDTLLDYGFYLLNVDNICQSVAIYQAALDIRQSVFGGKNIHVATAHEDLAYSSYVHQYSSGKFDNALFHAERAIGIITHILPEDHLLLASSKRVKALILEEIAIDCHNKETEQRLLQEAHDLHLSSLQLAKKAFGEFNVQTAKHYGNLGRLYQSMRKFKEAEEMHIKAIQIKEQLLGQEDYEVALSVGHLASLYNYDMNQYENAEKLYLRSIAIGKKLFGEGYSGLEYDYRGLIKLYNSIGNYEKVFEYHNVLSNWNRLRDRQYSVTDALEDVSSSPQSTEEVVQSFLMAQNVEGPSC
notes: PAT1 / APPBP2, endogenous in mouse primary cortical neurons; detected by blot with mAb26; also called Ara67; source: endogenous, mouse primary cortical neurons (E16, Swiss strain), in lysate
[1]
  ratio of APP to PAT1 in the immunoprecipitate (arbitrary units): 6 AU
[2]
  ratio of APP to PAT1 in the immunoprecipitate (arbitrary units): 2.7 AU
